Test results reported in a protein production outcome set (Wang et al. 2014).

Assay: label from the status in PepcDB records

**Q.** Which protein production does the source give for “MNNPITAVWEITMGCNMRCKHCGSSCENALEGELTTEEALKLCDELGELGFKWITLSGGEPTTRKDWHLIAKRLNENGIIPNMITNGWLMNEEIADKAVEAGINTVAISVDGLEETHDFIRKKGSFQRIMRAFDILRTRNIFYSAITTINNINIKELPRLRDILIEKGVRGWQLQLGLPMGNMAKNNELVAQPYHIDEVIEFSYKTVKEGYNIDVQLADCIGYFNLKEIEVRKNSYGGGRDGYNWTGCGAGKYSLGILHNGDILGCTSVRDRSFIEGNIRQTPIKEIWMNPDSFSWNRKMTKDKLSGLCKKCYFGERCLGGCSNTRLTMEGSVYSENRYCSYNVAISTAREQLDRIEDVDVMLSKAKKFADNGNFQLAEILLSRAIEKGCRDIGVFEFYGYISFMLGNYLDAKKANEEALKINPDSAYANKGMGLSLGRLGELEKGIEYLRKAIALSDENFTDPYYDLAVLLYENGRKEEALEVLEEGRKKYKSFIDTSKDLYDILTNAS” here?
**A.** The protein production was “failed”.

**Q.** With “MNNPSETSKPSMESGDGNTGTQTNGLDFQKQPVPVGGAISTAQAQAFLGHLHQVQLAGTSLQAAAQSLNVQSKSNEESGDSQQPSQPSQQPSVQAAIPQTQLMLAGGQITGLTLTPAQQQLLLQQAQAQAQLLAAAVQQHSASQQHSAAGATISASAATPMTQIPLSQPIQIAQDLQQLQQLQQQNLNLQQFVLVHPTTNLQPAQFIISQTPQGQQGLLQAQNLLTQLPQQSQANLLQSQPSITLTSQPATPTRTIAATPIQTLPQSQSTPKRIDTPSLEEPSDLEELEQFAKTFKQRRIKLGFTQGDVGLAMGKLYGNDFSQTTISRFEALNLSFKNMCKLKPLLEKWLNDAENLSSDSSLSSPSALNSPGIEGLSRRRKKRTSIETNIRVALEKSFLENQKPTSEEITMIADQLNMEKEVIRVWFCNRRQKEKRINPPSSGGTSSSPIKAIFPSPTSLVATTPSLVTSSAATTLTVSPVLPLTSAAVTNLSVTGTSDTTSNNTATVISTAPPASSAVTSPSLSPSPSASASTSEASSASETSTTQTTSTPLSSPLGTSQVMVTASGLQTAAAAALQGAAQLPANASLAAMAAAAGLNPSLMAPSQFAAGGALLSLNPGTLSGALSPALMSNSTLATIQALASGGSLPITSLDATGNLVFANAGGAPNIVTAPLFLNPQNLSLLTSNPVSLVSAAAASAGNSAPVASLHATSTSAESIQNSLFTVASASGAASTTTTASKAQ” as the sequence, how does the protein production read?
**A.** Its protein production is “failed”.

**Q.** For “MNNRELGRWQEHKHIGDYGWGIILCVIILCCIGMWAVYYACLHDLKVIDPVRTTMMQCLWYLVGALIATTMLHLSEKQLMQWAPIGYSIGMLLLILLLVLYSREYYVQTGAKSWFAIGTLTFQPVEVMKPLYILMMGRLIVQDQQWGPHNNFNADWRLTRRLVIYTFPIIVALKIINDFGTTLVFLTIFIGMLIVSPCRFSFLWRVLLVAGSIGVVLILLATSSTGQSLLSHIGFKLYQFDRINTWLNPSNGVSDQSYQLWQSMRAVGVGGLTGNGVTHNAVYVPVRESDMIFSVVGETTGFIGCSVLLIVYMYLFYLIFRSAFASRRRFYVYVSTGVAVMLAFHMFENIGMTIGLLPLTGIPLPFVSQGGSAIIGDFMGVGLVLATQYPNVRSIFSVPRIFH”, which protein production is on record?
**A.** The protein production was “failed”.

**Q.** With “MNNSINHKFHHISRAEYQELLAVSRGDAVADYIIDNVSILDLINGGEISGPIVIKGRYIAGVGAEYADAPALQRIDARGATAVPGFIDAHLHIESSMMTPVTFETATLPRGLTTVICDPHEIVNVMGEAGFAWFARCAEQARQNQYLQVSSCVPALEGCDVNGASFTLEQMLAWRDHPQVTGLAEMMDYPGVISGQNALLDKLDAFRHLTLDGHCPGLGGKELNAYITAGIENCHESYQLEEGRRKLQLGMSLMIREGSAARNLNALAPLINEFNSPQCMLCTDDRNPWEIAHEGHIDALIRRLIEQHNVPLHVAYRVASWSTARHFGLNHLDLLAPGKQADIVLLSDARKVTVQQVLVKGEPIDAQTLQAEESARLAQSAPPYGNTIARQPVSASDFALQFTPGKRYRVIDVIHNELITHSHSSVYSENGFDRDDVCFIAVLERYGQRLAPACGLLGGFGLNEGALAATVSHDSHNIVVIGRSAEEMALAVYQVIQDGGGLCVVRNGQVQSHLPLPIAGLMSTDTAQSLAEQIDALKAAARECGPLPDEPFIQMAFLSLPVIPALKLTSQGLFDGEKFVFTTLEVTE” as the sequence, how does the protein production read?
**A.** Its protein production is “failed”.

**Q.** With “MNNTKTYSKTSIALHWIVGLAFIGVFIIGAYLSDLPRGPEKMELVALHKSFGVLILLIALARVFWRIKEGAIPPASVMPAWQEKVAKAVHGLLLLATLAMPLSGIAMNIGGGRALEVFGYTLVAAGEKVVWLQELGAAVHKTAPPIIIAIVLLHIAAVLKHHLIDKDATMARMLGRG” as the sequence, how does the protein production read?
**A.** Its protein production is “failed”.

**Q.** For “MNNTPKLKLGIVAVSRDCFPMELSENRRKAVVDAYNGEIFECLTTVENEKDMRKALKEVKSAGVNALVVYLGNFGPETPETLIAKEFDGPVMFAAAAEERGDNLVNGRGDAYCGMLNASYNLALRNINAYIPEYPVGTASDVANMINEFVPVATALIGLKNLKIISFGPRPQDFLACNAPIKQLYNLGVEIEENSELDLFASFNEHENDSRIPDVVKDMEEELGEGNKMPGILPKLAQYELTLLDWAEEHKGSREYVVFANKCWPAFQTQFGCVPCYVNSRLTARGIPVSCEVDIYGALSEYIGTCVSQDVVTLLDINNTVPKDMYESEIKSKFNYTLKDTFMGFHCGNTAACKLTSGTMKNQMIMARALEPNQEPNITRGTLEGDIVPGEITFFRLQSNADSELTAYVAEGEVLPVKTRSFGSIGVFAIPQMGRFYRHVLIENRFPHHGAVAFGHFGKAIYNLFRYLGVKEVGFNRPKEMLYKTENPFELEHHHHHH”, which protein production is on record?
**A.** The protein production was “not failed”.

**Q.** Which protein production does the source give for “MNNVFGLDIGTRNVVGTVGYQTDDKEFVVTAQYVREHETRAMLDGQIHDIGRVAKTIKEVKDELEKQTGQPLEEVCIAAAGRVLKTVTTHVEYEYAQESVVTGEDVHTLDLLGIEKAQEALKEVNDTSYKFYCVGYSTVKFFLNDEVFISLEGHKANKIGEDIIVTFLPEDVVDGLYAAVGQAGLSVANMTLEPIAAINVAIPENYRMLNIALVDVGAGTSDISITRDGSIIAYGMIPHAGDELTEVIVQHFLVDFNMAESIKLQSTTSDTVTYKDIMSIEHTIPAQDVWDVAAPVVDNIAQEVSAKIRELNGDKTVSACFVVGGGGKIHGFTEKLAEDLDLPEERVALRGEEVLGDVTFEQEDIKKDPLLVTPIGICLNYYDQRNNFIMVRFNGERIKLYDNNRLTIVDAALQAGFPNDELFPKRGTPINFTVNGVARLVRGEAGEGAVVTMNGKPASINTPLEPNSEIIIEPSTAGEAAVYKISQLDEYNHSVITFIINGRRVSCPRFVQVNGELEPEDYSIRENDVIETRNYYTVRQIAQFMDLVIDTDQMIFVNNEEAGLDTLVYENFSVEWKTDEYGVARIDNNTYNDTQESDTDEASVLAEQDANSTESDNTVARTSEQMMNQVLDELHDDFAKEAEASAVPENELPENELPKNDIQEEIHEEDSSKNTVTVIVNGEPVELSGKDTYIFVDIFTHISFDLQAGKGRAIATVINGRDARFSEELHEGDKIELYWKEN” here?
**A.** The protein production was “failed”.

**Q.** Which protein production does the source give for “MNPIPADVAAVVLAGGVGRRFGRPKALAMMDGISLVERAVEALSSGPADVYVSVSPALERPVARLVGSRRVIVDLVEQAPCEGPLRAFLTAASTLVSYSNLVFMPVDAPWASWRDLEPIYNASKAIGSGASYFSGEGIVHPLFLAARRKSLLTAAWTACWGRAEKRASAILRSLDPLILLGSSETRSPLALATVNTPQDLWRPSRVPAPAEGYILLEGHSILYKISSTMNSYYSALALEAEYKLYRRLGLLRLASHVLKDAAALNVSTSLIQQESMAGGLGLEHHHHHH” here?
**A.** The protein production was “failed”.

**Q.** For “MNPLARFLALAGFTVALASCQMFTPPEVQESGFQPSDRPITVDNVGANNKLAELAKAQHPRILATYGGEYSDPKLERMVAKVVGNLTVVSANPTQTYRITILNSPNVNAFALPGGYLYITRGLLALANDSSELAAVIAHEMGHVTANHGLQRQQLEAEEGLATKVVSDVLGDSPTAKAALIRGKLRLAQFSRNQELEADAIGIKSIGEAGYDPYAAGRFLQSMSAYTDFRSISGATDASLDFLATHPNTPQRIDLAQRHARQFGAPGVGTRDRDSFLAGIDGLLYGDTPEEGYVRGETFLHPGLGVSFTVPDGFIIDNSAAAVTATGPGDIAIRFDGVSIDKNRALTDYIRSGWVAGLDDSTVKQETINGNEAATAHAGAEGWQFDIAVIRAGGQVYRLLTAAPSASTSLETVARSVSGSFRVLSAAEKAALKPLHIRVLTVQPGQTMGSLAAQMVGVDRKLDLFRVLNALSPGAAVSAGDKVKIVTDK”, which protein production is on record?
**A.** Its protein production is “failed”.

**Q.** For “MNPSDRKDAVNPFGKLTFLVVDDFENFRLSMRQMLRSCGADKIELVAHATPAIQYCTYNHVDVVLCDYNLGEGKNGQHVLEELRHKKLLKRSSLFLMVTAETSKEMVMGAREYQPDGYLTKPINRAMLEQRLGSLIKQRNALLPITREIDRENYPEAISLCLQTLPKQPRYKTWLMKTLGELYFMVGDLAHAQKVYDDVLNQRELSWARLGRCKVLLANRNFDQAVDGLKALIEKHPDYMEAYDLLAEGLQKQGRSAQAQQVLEKAAEHSPNALLRQKHLAELAGANQDIDTASQAWRQTVSLGTYSIHDNAEHYLSLAQSLSDLSEGDLDEEGAARSSEALSVLTKMEKRFDNDETIGLKSRIVQCRLHAGQGRHREAEKILTAVSSELESLEELPADMGLDFAKTLFRMGREDQAKRILGDLASRFDNDPDTLQKIENLLDEPVGFRQKLEARSMNRDGIKAFEAGDLDAAVEAFNKALAIVPDHAALNLNLVQVLMKQYDQNPEPALLAACQQRLDHLNKLPEQHRQHRRYLALTRKLKGLTA”, which protein production is on record?
**A.** The protein production was “failed”.

**Q.** For “MNQAAQQSAPSRLRDRTLAAFTLMVSQPALAAIAALAALYALLAVVGGILTFSPVPFWDMWDGGLGFYVRQMTDVSQWWAQHNEHRIVLSRILFFLDYRYFDSNGAVLVVINYLLACSTFGLLAWCALQRDASRRRDGRMIAAFILCCALLWTQSNNLTWAFQSQFFLANLLPLLALVLLHASCRTRIRGNAIVFLAALTVAAMAAVSMANGVLAGGVVAAACLLGRQSWRRNLLAWAVAIAVPALYFHHYTAPAGHGSILASLRTEPLEVIKFFFAYIGSPFAHLDASGPLHLGWAILAGVVLLTAGAILAWRTIFKRHDTVDVDLVVTLFLGYLVASAFATAGSRALFGLDAAVASRYTTPGLLVLGCVLILASRNFFRDRALTMPYQIGLALMALAFLPSQLTATRPQPYLDFEWRFAALALELGVKDDKQIGWIFPDAAWAQKIAEPAANMGLGIFAKPGIYDAKLTLGGSYPTSSLQTCSLAGLENEAVDASTNDWIRLKGGLMNSILPRKISTVLLVDANNTIVGRGLLAEPKQDSPGAPFGAPFKAYLMGRAQPAVYKIVIPGFCTTTVAPKSQ”, which protein production is on record?
**A.** The protein production was “failed”.

**Q.** For “MNQEKIADLKNWMHQEKIDFTYISDPGHIAYFSGYESEPHERVLALFIAADDQSFLFTPALEVEDAEKSSWTYPVYGYLDSENPWEKIAALLNKRTQGTPRFALEKQALSLARFDQLKTYFPASDFSHDVTPLIEKLQLIKTEPEIQRLLEAGSWADVAFEIGFKAIQAGVAEQEIVAEIEYQLKRQGIRSMSFDTLVLTGKNGASPHGVPGETKIEPHDLVLFDLGVVHNGYCSDATRTVSYLEPSDFQKEIYGIVLEAQLAATEAVKPGVTAGELDDIARGVITKAGYGEYFNHRLGHGIGTTVHEYPSLVHGNDLVIEEGMCFSIEPGIYIPGKVGVRIEDCLHVTKTGSEPFTKTTKELQIIQ”, which protein production is on record?
**A.** The protein production was “failed”.

**Q.** With “MNQPTSETRTVVVERELPHSPEKIWRALTQPHLIEAWLMKSDFEPVAGRTFSFHADWGSVDCTLLTIEPERVLSYTWAAYGLESVVTWTLTPTPGGTLLRMEQAGFRADQEQAYRGAQQGWVRFFDSLEQVVARADEDEEGRA” as the sequence, how does the protein production read?
**A.** The protein production was “failed”.

**Q.** With “MNQRDVILDCEKKLLTAIQNNDVESLEVLLHDDLLFIIPSGETVTKETDIAAYSSGKIALRAVVPSDYIIRIIHDTVVVSVNIEIKGEYMEHTLDNTFRYLRVWKLFDGNWKVIAGSCTAIG” as the sequence, how does the protein production read?
**A.** Its protein production is “not failed”.

**Q.** Which protein production does the source give for “MNQTKTTDDNNNNSKPDETESTTTVPEWITETINGGSFHHVDLETGTNGWASPPGNVFSLRSNNYFTTKQKSPGGDYLLSLIAVDWLKSTTKKLDHILCRPDNRVIHALETSQSRSFIFAVNFQIPGKEHYHLVLYFATEKPIPSDSILHKFINIDDDSFRNERFKVVTNVVKGPWVVKATAGKLGAFLAGKVVKCSYYRGANYFEVDVDFSISAIYSALVRLTLGYVTNLVADVGFVVEAQTEEELPERLIGGGRVCYMELSSAFLVDDGKKMGAAEGNHSEDEI” here?
**A.** The protein production was “failed”.
